Assay results from the supplement of paper PMC9170038.

system: K4 kissing-loop RNA reporter; assay: apparent KD of K4 kissing-loop reporter; higher = weaker reporter binding; conditions: Eterna round: R107; input ligand: FMN 200 uM
Protocol: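 RNA-MaP round R107: designed RNA switches with theophylline, tryptophan, arginine or FMN aptamers are transcribed on-chip within common flanks. They are titrated with a labelled K4 kissing-loop RNA reporter in RNA-MaP buffer (100 mM Tris pH 7.5, 80 mM KCl, 4 mM MgCl2), without ligand or with the indicated ligand. Median apparent KD per design.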
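Note: bound reporter read as fluorescence of individual clusters on recovered sequencing chips by microscopy, with normalized cluster intensities fitted with a binding model.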

| Sequence | apparent KD of K4 kissing-loop reporter [nM] |
| --- | --- |
| GUCUCAAAAGAGGCAAGCACUCACGAGGACAAGGAUAUCAUAUCAAUGAGAAGGUGUCCUCGUCCUUAGUGAUGUUAAGGAGUGC [Omei KL FMN A SS E v3] | 297 |
| GGUUUAUAGGAGGAUACCAGUACGGAUAAAGUACGUUAAUAGUAGAGUGAUGUUCUAAAGUACCCUUGGCAGCUUAGAGUAAGUU [ExTheophylB.K] | 85.8 |
| UGUAUAUGAUGUGAUACCAGUGAAGAGCCAGUGAUGUUGGUAGAACUGGUAUAUAAAUAACACCCUUGGCAGCACAAUCACGUAC [whbob_Ex_Theo_B_sa98] | 192 |
| CGUUUAUAGCAGGAUACCAGUACCCAUAAAGUACGUUAAUAGUAGAGUGAUGUUCUGAAGUACCCUUGGCAGCUUCCGGUAAGUG [#25 K4 Theophylline B Exclusion] | 163 |
| AUGCGCGUGCGAUGUAAAUCGCACGCGCAUCGAGGACCGGUACGGCCGCCACUCGCUCGCGCCGAGUGAUGUUCGGCCGGCGAAC [#2 Same State - Tryptophan A Attempt #5 (HarryS)] | 442 |
| UAUUAAUUGUCAGGAUAUCGUAUUCGAGUGAUGUUCGUAUAUCGACGAUAGUCGAUAUUAUUUAUACGAGAAGGGACAUUAUUUA [JR_SSFMNB_Sub005] | 292 |
| UUAUUAAUAACAGAUACCAGUCCAGAAUGAAAACUAUAGUGAUGUUAUAAUAAAGGGAAGGACCCUUGGCAGCUGUAAUAUAUUU [AstrosSSTheB#2] | 525 |
| UGUCAUUGGUCGGCCGCCACUUCAAGGUCAAAGACCAAAGAGUGAUGUUCUUAGACGAAAGUCAGAAGGACCGGGACCGAUGACU [TrypBS 9 #SwitchBubble #K4Middle] | 318 |
| GAGGUACAGGCGGCCGCCACUAGUGAUGUUAGUGAUAGAAGAUAUAGUAAAUAUCGGCAUGUAGAUAGGACCGGGCCUGGUGGAG [vvgtcmullin] | 291 |
| CCUAUCUCAUACGAUACCAGUCUACGAUAUUUUAUCGUUGCCAACACCGAGUGAUGUUCGGACCCUUGGCAGCGUAUGGGAUAGG [#03 K4 Theophylline B Exclusion] | 159 |
| UAAGCUCUGACGGCCGCCACUGCACGUGAUCCAGUAGUGGCUAACAUGAGUGAUGUUCAUGUAAGCAGGACCGGGUCAGAGCUAA [KL-XTryp-B13 #analogue] | 103 |
| GUCUCAAAAGAGGCAAGCACUCACGAGGACAAGGAUAUCAUCUCAAUGAGAAGGUGUCCUCGUCCCUAGUGAUGUUAGGGAGUGC [Omei KL FMN A SS E v2] | 211 |
| GCGGGCCCGGGAGGAUAUGAGUCGAGUGAUGUUCGGCGGUCCAUGCCGUUGCGGCGUUAAGCCCUUUUAGAAGGCCCGGGCCCGC [#2 Exclusion - FMN B Attempt #2 (HarryS)] | 208 |
| UCCACGCUUAGAGGAUAUCGGAUUAGAGUGAUGUUCUAAAGAAGCCCAGUGAUGUUGGAUGGUAUACGAGAAGGCUGAGGCGUGG [Same State FMN B GF 3] | 229 |
| UCAUCGGUACAAGGAUAUUAGAGGUAGUGAUGUUACCCGUUUUUUAUACAUCGAUGUCACCCUAACUAAGAAGGUGUUCAAACUU [theeternabot_exclusion_KL_FMN_B_7] | 62.5 |
| UGACGUUUGGGAAGGAGCGGAAUGUAAUACGGAGCGCGUGGAGAUGCAGUGAUGUUGCAGAUCCAGGUAGGUCGCCCAAGGGACG [Zati] | 95.3 |

| Sequence | apparent KD of K4 kissing-loop reporter [nM] |
| --- | --- |
| GCCGUACGCAUGGAUACCAGUCUUAGAGUGAUGUUCUAUACGAUUGCGCCUGGAUCAAUGGACCCUUGGCAGCCAUGCGUACGGC | 144 |
| UGUUUUUACUGAAGGAGCGGCAAUUGAUACGUAGAUAUAGUGAUGUUAUAUAAGAUAGAGAGCCAGGUAGGUCGCAGAGUUUUUC [ExArgB.Z] | 167 |
| UGAUUGGCGAAAGUAGUGAUGUUACGAACAUAGGAUAUUAGAGGAAUAAGAAGGAUGAAUGAGAAAGGAAUAAAUUGUUGGUUGG [#08 K4 FMN A Same State] | 139 |
| ACACUUUACGUAGGAUAUGCGACGAGUGAUGUUCGUCAGGCGGCCUUAGAUUAAACAAGCCGCCUAGCAGAAGGACGGGCAGUGU [Qumatiri] | 133 |
| UGGAGUUGACGAAAAGUCAACUCCCGAGAAGGAGCGGACGAAAGUCCAGGUAGGUCGCUCACUACCAGUGAUGUUGGUACUAAAA | 148 |
| UAUACUAGACAAGAGAGAAUUCUCUCAAGAGAGGAUAUCCGAAUUCGGAGAAGGCUCUCUCAGUGAUGUUGGGAAUAGUCUAGAA [AK6 SS FMN A] | 150 |
| GUAGGAUGGUGCGAUACCAGACCUGCAGUGAUGUUGCGCCAUAGUGAGUGAUGUUCACCGGUCCCUUGGCAGCGCGUCCAUAAAG [Same State Theophylline B GF 17] | 1060 |
| GGCAUGCAUGGAAACAUGCAUGCCAUGCCUCGAGGACCGGUACGGCCGCCACUCGUUAAAAGAAAUGCCAGUGAUGUUGGCCGAA | 443 |
| UUUAAACAUAGUGAUGUUAUGUAACAAUGACGAGGACCGGUACGGCCGCCACUCGAGAGAGAUGAUGGUAAAAUAAAUAAUUUUC [#10 K4 Tryptophan A Same State] | 105 |
| GGUCCGGGCUCGGCCGCCACUCCCUCCUGCCGGAAGGUGGGAUACCGAGUGAUGUUCGGUUGGAGGAGGACCGGGAGCCCGGACC [#2 Exclusion - Tryptophan B Attempt #13 (HarryS)] | 132 |
| CCGUAGCGAUCGGCCGCCACUCAAGAUCGCCAACUAUCACACGGUUCUCCCGAGUGAUGUUCUAGGAGGACCGGGAUUGUUGCUC [theeternabot_exclusion_KL_Trp_B_13] | 421 |
| CAUACGCAUGGAGGAUAUGGGAUUACUCAUAUUACCCUGUAACAGGUAUCUCAGUGAUGUUGAGACUCAGAAGGCCAUGUGUAUG [Ex FMN B 23] | 615 |
| UUAGGAGUGGGAGGAUAUCCUAAUGUGGGUGAUGUUAGUGAUGUUGAAAGUGUAGUGAUGUUGUGCGGAGAAGGUCCAGUGUUGA [BDazzled - #11 - Exc. FMN B] | 212 |
| AAACAUUGGUCGGAUACCAGCUUGAUCGGAAAACGAUCUGCUGGAGUGAUGUUCCAAUAAAGCCCUUGGCAGCCGACCGAUGAAA [MAT - Same State Theophlline B - Mod of Eli - D14] | 814 |
| UGUAUGUGAUUUGAUACCAGACCAGCUGGAGGAAUCUGAGUGAUGUUCAGGUAGGUUUGGGUCCCUUGGCAGCAAAUCGCAUACU [KL-SSTheoB17] | 251 |
| CCAUUCUUUUACGAUACCAGUUUAAUAUAUUUAUUCAUAACCCUUGCCGAGUGAUGUUCGGACCCUUGGCAGCGUUUGCGAGAGG [lliltkmullin] | 303 |

same assay, conditions: Eterna round: R107; input ligand: arginine 13.2 mM

| Sequence | apparent KD of K4 kissing-loop reporter [nM] |
| --- | --- |
| GUCUCAAAAGAGGCAAGCACUCACGAGGACAAGGAUAUCAUAUCAAUGAGAAGGUGUCCUCGUCCUUAGUGAUGUUAAGGAGUGC [Omei KL FMN A SS E v3] | 298 |
| GGUUUAUAGGAGGAUACCAGUACGGAUAAAGUACGUUAAUAGUAGAGUGAUGUUCUAAAGUACCCUUGGCAGCUUAGAGUAAGUU [ExTheophylB.K] | 147 |
| UGUAUAUGAUGUGAUACCAGUGAAGAGCCAGUGAUGUUGGUAGAACUGGUAUAUAAAUAACACCCUUGGCAGCACAAUCACGUAC [whbob_Ex_Theo_B_sa98] | 188 |
| CGUUUAUAGCAGGAUACCAGUACCCAUAAAGUACGUUAAUAGUAGAGUGAUGUUCUGAAGUACCCUUGGCAGCUUCCGGUAAGUG [#25 K4 Theophylline B Exclusion] | 342 |
| AUGCGCGUGCGAUGUAAAUCGCACGCGCAUCGAGGACCGGUACGGCCGCCACUCGCUCGCGCCGAGUGAUGUUCGGCCGGCGAAC [#2 Same State - Tryptophan A Attempt #5 (HarryS)] | 278 |
| UAUUAAUUGUCAGGAUAUCGUAUUCGAGUGAUGUUCGUAUAUCGACGAUAGUCGAUAUUAUUUAUACGAGAAGGGACAUUAUUUA [JR_SSFMNB_Sub005] | 260 |
| UUAUUAAUAACAGAUACCAGUCCAGAAUGAAAACUAUAGUGAUGUUAUAAUAAAGGGAAGGACCCUUGGCAGCUGUAAUAUAUUU [AstrosSSTheB#2] | 427 |
| UGUCAUUGGUCGGCCGCCACUUCAAGGUCAAAGACCAAAGAGUGAUGUUCUUAGACGAAAGUCAGAAGGACCGGGACCGAUGACU [TrypBS 9 #SwitchBubble #K4Middle] | 144 |
